Measured values: the supplement of paper PMC10724198
± gives the standard deviation of the averaged measurements.

Test system: Saccharomyces cerevisiae
Test: protein stability index of tFT-peptide fusion (C-terminal peptide) (PSI (0-1 scale)); higher = more stable (slower turnover)
Conditions: temperature: 30 C
Description: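 MPS profiling in S. cerevisiae of the yeast C-terminome library: the last 12 aa of each annotated ORF are fused to the C-terminus of a sfGFP-mCherry timer, after a GGGS linker. Cells are FACS-sorted into 8 mCherry/sfGFP bins and deep-sequenced. PSI runs from 0 (unstable) to 1 (stable); wild type and das1Δ backgrounds, two technical replicates each.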

[1] = genetic background: das1 deletion

Sequence | protein stability index [1] | protein stability index (genetic background: wild type)
QKRIQRKKMNEM [AIM23 C-terminal 12 aa] | 0.71243 ± 0.0002 | 0.663 ± 0.014
QVHPSRQELSFT [DON1 C-terminal 12 aa] | 0.7176 ± 0.0016 | 0.701 ± 0.069
TPLGPKPDIRPL [ECM4 C-terminal 12 aa] | 0.727 ± 0.03 | 0.67 ± 0.016
KASNGHIELIGE [CRF1 C-terminal 12 aa] | 0.674 ± 0.002 | 0.699 ± 0.034
LLVEKKDIPSNS [PRM4 C-terminal 12 aa] | 0.6965 ± 0.001 | 0.675 ± 0.013
LGSSMVQGRSIR [YPK1 C-terminal 12 aa] | 0.71 ± 0.024 | 0.661 ± 0.0085
EKSSVKRPCVKK [RKM4 C-terminal 12 aa] | 0.674 ± 0.02 | 0.701 ± 0.0034
NVDVVTPNSIFI [TMA17 C-terminal 12 aa] | 0.67 ± 0.036 | 0.6982 ± 0.0046
FVKTIADTLSFS [PRR1 C-terminal 12 aa] | 0.6997 ± 0.0036 | 0.7061 ± 0.0011
NEQEINKIFEPE [HXT14 C-terminal 12 aa] | 0.694 ± 0.01 | 0.743 ± 0.052
RWFKKKKETGGS [BUD2 C-terminal 12 aa] | 0.698 ± 0.0098 | 0.71919 ± 0.00068
ICRVAIWSAERI [CAT5 C-terminal 12 aa] | 0.693 ± 0.015 | 0.658 ± 0.034
NGNNAESGETKQ [SSC1 C-terminal 12 aa] | 0.6813 ± 0.0068 | 0.6673 ± 0.0059
RFYFLSIFKYII [YBR191W-A C-terminal 12 aa] | 0.633 ± 0.023 | 0.331 ± 0.02
SGWSAKIPVSMI [YCR045W-A C-terminal 12 aa] | 0.704 ± 0.014 | 0.698 ± 0.0077
NLGYSKDQVFKF [MCR1 C-terminal 12 aa] | 0.708 ± 0.0082 | 0.688 ± 0.039
APTPEACESCSG [RNR3 C-terminal 12 aa] | 0.696 ± 0.01 | 0.6947 ± 0.003
FIEMSLASSFAG [MBR1 C-terminal 12 aa] | 0.713 ± 0.009 | 0.704 ± 0.028
WKLRAKYGIRKD [MGR2 C-terminal 12 aa] | 0.6905 ± 0.0028 | 0.684 ± 0.02
RLQAMLNSSSSI [CEF1 C-terminal 12 aa] | 0.681 ± 0.015 | 0.669 ± 0.008
EMRKRFFEKDLL [RAP1 C-terminal 12 aa] | 0.696 ± 0.022 | 0.723 ± 0.059

Sequence | protein stability index [1] | protein stability index (genetic background: wild type)
WSTFYYLCRKRE [CRG1 C-terminal 12 aa] | 0.693 ± 0.014 | 0.701 ± 0.077
DTDGAKISIINN [FKH2 C-terminal 12 aa] | 0.7019 ± 0.0064 | 0.7033 ± 0.002
FPCAGSAMGSLT [YMR103C C-terminal 12 aa] | 0.703 ± 0.011 | 0.684 ± 0.01
TIKKGTTLEPIA [GCD11 C-terminal 12 aa] | 0.6896 ± 0.0033 | 0.7 ± 0.028
RLDKATKALEGF [NBA1 C-terminal 12 aa] | 0.6942 ± 0.0018 | 0.702 ± 0.033
RPVLSEEQRKNC [YDR344C C-terminal 12 aa] | 0.668 ± 0.0083 | 0.6794 ± 0.0048
HIDIPDFSKWDV [SUL1 C-terminal 12 aa] | 0.7412 ± 0.0047 | 0.718 ± 0.016
LPEPNFFRKAAF [AXL1 C-terminal 12 aa] | 0.7202 ± 0.0035 | 0.7 ± 0.015
LPPGRVFSRVRR [MRPL35 C-terminal 12 aa] | 0.683 ± 0.022 | 0.666 ± 0.012
REVDDRFKVIYV [VPS35 C-terminal 12 aa] | 0.692 ± 0.018 | 0.695 ± 0.029
GIPNFKLKVTQI [GAB1 C-terminal 12 aa] | 0.6896 ± 0.0036 | 0.706 ± 0.041
QQPNQNQNQNSK [FIP1 C-terminal 12 aa] | 0.738 ± 0.049 | 0.676 ± 0.019
TYQLIEKNRNSK [BLS1 C-terminal 12 aa] | 0.692 ± 0.019 | 0.678 ± 0.01
VKNWSKSILGFN [MSC1 C-terminal 12 aa] | 0.7095 ± 0.004 | 0.666 ± 0.021
GNLSLDWLNLNL [GAT1 C-terminal 12 aa] | 0.735 ± 0.01 | 0.7689 ± 0.0048
LYSLPISVPCTS [YDL086C-A C-terminal 12 aa] | 0.292 ± 0.013 | 0.313 ± 0.018
SRSSIKNIVKPK [MRX15 C-terminal 12 aa] | 0.689 ± 0.048 | 0.75 ± 0.052
FQPLLKKNQVGY [THI3 C-terminal 12 aa] | 0.704 ± 0.028 | 0.693 ± 0.012
HKGSTLDIMSID [QNS1 C-terminal 12 aa] | 0.72 ± 0.0096 | 0.667 ± 0.025
RHAASLLGMSTK [VPS17 C-terminal 12 aa] | 0.714 ± 0.0089 | 0.762 ± 0.03
